Values belong to the binder of their own block, whether it stands above or below them.
What was measured:
Assay in all cases: cell surface interaction assay: query ECD tetramerised with fluorescent streptavidin on transfected cells, immunofluorescence
UNC5A = molecular target: T1, UNC5A (human, UniProt Q6ZN44)
T1 construct: expressed on cells; also called UNC5A expressed on cells
T1 sequence (cell-surface-expressed binding partner, looked up): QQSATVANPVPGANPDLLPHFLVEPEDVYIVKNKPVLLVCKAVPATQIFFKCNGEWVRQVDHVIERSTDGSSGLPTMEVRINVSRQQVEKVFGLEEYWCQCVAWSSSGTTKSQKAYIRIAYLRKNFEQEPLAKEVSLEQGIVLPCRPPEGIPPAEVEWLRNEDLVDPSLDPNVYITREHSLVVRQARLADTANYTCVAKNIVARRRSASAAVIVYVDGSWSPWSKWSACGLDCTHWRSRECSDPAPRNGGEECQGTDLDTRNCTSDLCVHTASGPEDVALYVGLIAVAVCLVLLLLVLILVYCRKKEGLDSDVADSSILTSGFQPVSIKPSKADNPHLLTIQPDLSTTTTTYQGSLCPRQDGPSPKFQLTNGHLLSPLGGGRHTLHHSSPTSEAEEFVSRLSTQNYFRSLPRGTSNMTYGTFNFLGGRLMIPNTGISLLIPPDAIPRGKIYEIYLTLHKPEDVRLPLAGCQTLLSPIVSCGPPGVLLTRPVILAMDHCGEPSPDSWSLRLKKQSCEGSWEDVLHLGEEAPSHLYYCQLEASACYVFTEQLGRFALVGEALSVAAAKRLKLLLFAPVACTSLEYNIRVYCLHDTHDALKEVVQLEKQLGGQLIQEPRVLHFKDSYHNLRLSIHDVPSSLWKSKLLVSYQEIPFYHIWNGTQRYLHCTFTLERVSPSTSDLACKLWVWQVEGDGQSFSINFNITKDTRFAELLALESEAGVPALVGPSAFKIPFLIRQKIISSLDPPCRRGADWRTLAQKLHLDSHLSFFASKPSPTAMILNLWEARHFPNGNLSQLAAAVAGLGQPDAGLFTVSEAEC

UNC5D = molecular target: T2, UNC5D (human, UniProt Q6UXZ4)
T2 construct: expressed on cells; also called UNC5D expressed on cells
T2 sequence (cell-surface-expressed binding partner, looked up): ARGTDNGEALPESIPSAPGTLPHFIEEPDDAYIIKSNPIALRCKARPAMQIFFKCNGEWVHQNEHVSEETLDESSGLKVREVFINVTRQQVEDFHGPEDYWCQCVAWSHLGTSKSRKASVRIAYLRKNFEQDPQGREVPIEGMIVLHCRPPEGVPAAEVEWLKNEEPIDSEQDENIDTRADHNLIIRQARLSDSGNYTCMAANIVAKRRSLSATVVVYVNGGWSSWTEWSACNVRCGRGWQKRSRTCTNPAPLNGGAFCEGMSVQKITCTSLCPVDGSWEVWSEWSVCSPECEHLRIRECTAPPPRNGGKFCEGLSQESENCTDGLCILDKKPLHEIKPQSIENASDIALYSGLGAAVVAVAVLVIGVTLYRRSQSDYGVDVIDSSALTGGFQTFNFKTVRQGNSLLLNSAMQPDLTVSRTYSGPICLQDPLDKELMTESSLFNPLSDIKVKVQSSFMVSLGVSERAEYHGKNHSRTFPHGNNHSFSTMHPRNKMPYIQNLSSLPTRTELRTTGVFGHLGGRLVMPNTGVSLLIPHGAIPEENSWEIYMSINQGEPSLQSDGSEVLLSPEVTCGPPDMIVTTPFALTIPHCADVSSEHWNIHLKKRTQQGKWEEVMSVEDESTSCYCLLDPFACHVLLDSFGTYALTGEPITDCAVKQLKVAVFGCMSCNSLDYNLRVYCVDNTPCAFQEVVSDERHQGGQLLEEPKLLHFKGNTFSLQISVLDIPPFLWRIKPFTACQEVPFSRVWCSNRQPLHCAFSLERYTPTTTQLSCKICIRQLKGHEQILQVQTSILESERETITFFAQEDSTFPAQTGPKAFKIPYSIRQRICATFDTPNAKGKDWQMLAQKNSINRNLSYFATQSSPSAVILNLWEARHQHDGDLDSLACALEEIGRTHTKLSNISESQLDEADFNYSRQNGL

MDGA1 = molecular target: T3, MDGA1 (human, UniProt Q8NFP4, biotinylated)
T3 construct: extracellular domain; also called MAM domain-containing glycosylphosphatidylinositol anchor protein 1; soluble query
T3 sequence (soluble query ectodomain, looked up): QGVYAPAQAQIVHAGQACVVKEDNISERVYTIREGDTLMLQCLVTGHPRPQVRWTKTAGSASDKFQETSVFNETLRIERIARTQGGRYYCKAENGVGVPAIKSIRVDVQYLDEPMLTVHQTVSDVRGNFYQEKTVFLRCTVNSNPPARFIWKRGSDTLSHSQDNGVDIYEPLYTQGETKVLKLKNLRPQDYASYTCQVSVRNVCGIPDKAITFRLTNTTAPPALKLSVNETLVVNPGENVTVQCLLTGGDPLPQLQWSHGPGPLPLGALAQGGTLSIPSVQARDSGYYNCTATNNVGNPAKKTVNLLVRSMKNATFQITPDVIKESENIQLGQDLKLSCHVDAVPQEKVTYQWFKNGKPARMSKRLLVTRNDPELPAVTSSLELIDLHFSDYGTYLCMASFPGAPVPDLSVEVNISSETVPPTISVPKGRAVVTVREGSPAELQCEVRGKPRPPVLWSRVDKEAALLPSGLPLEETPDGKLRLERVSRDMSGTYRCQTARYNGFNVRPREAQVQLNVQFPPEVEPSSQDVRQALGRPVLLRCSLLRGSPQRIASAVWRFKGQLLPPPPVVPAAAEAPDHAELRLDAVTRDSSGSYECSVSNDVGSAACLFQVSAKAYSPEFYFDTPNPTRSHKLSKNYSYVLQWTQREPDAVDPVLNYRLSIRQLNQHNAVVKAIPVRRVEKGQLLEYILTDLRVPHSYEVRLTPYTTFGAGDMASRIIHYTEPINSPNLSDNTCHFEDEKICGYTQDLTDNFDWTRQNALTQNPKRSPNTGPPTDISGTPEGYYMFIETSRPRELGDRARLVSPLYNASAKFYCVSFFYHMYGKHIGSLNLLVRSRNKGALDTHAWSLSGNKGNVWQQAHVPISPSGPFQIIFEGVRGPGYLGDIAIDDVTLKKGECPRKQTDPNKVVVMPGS

binding result (UNC5A): binds
binding result (UNC5D): binds
B1: FLRT3 (receptor, human, UniProt Q9NZU0 29-528, looked up)
soluble query ectodomain: KSCPSVCRCDAGFIYCNDRFLTSIPTGIPEDATTLYLQNNQINNAGIPSDLKNLLKVERIYLYHNSLDEFPTNLPKYVKELHLQENNIRTITYDSLSKIPYLEELHLDDNSVSAVSIEEGAFRDSNYLRLLFLSRNHLSTIPWGLPRTIEELRLDDNRISTISSPSLQGLTSLKRLVLDGNLLNNHGLGDKVFFNLVNLTELSLVRNSLTAAPVNLPGTNLRKLYLQDNHINRVPPNAFSYLRQLYRLDMSNNNLSNLPQGIFDDLDNITQLILRNNPWYCGCKMKWVRDWLQSLPVKVNVRGLMCQAPEKVRGMAIKDLNAELFDCKDSGIVSTIQITTAIPNTVYPAQGQWPAPVTKQPDIKNPKLTKDHQTTGSPSRKTITITVKSVTSDTIHISWKLALPMTALRLSWLKLGHSPAFGSITETIVTGERSEYLVTALEPDSPYKVCMVPMETSNLYLFDETPVCIETETAPLRMYNPTTTLNREQEKEPYKNPNLP
modifications: biotinylated
notes: extracellular domain; also called soluble query

binding result (MDGA1): binds
B2: NLGN3 (receptor, human, UniProt Q9NZ94 38-848, looked up)
cell-surface-expressed binding partner: QAPAPTVNTHFGKLRGARVPLPSEILGPVDQYLGVPYAAPPIGEKRFLPPEPPPSWSGIRNATHFPPVCPQNIHTAVPEVMLPVWFTANLDIVATYIQEPNEDCLYLNVYVPTEDVKRISKECARKPNKKICRKGGSGAKKQGEDLADNDGDEDEDIRDSGAKPVMVYIHGGSYMEGTGNMIDGSILASYGNVIVITLNYRVGVLGFLSTGDQAAKGNYGLLDQIQALRWVSENIAFFGGDPRRITVFGSGIGASCVSLLTLSHHSEGLFQRAIIQSGSALSSWAVNYQPVKYTSLLADKVGCNVLDTVDMVDCLRQKSAKELVEQDIQPARYHVAFGPVIDGDVIPDDPEILMEQGEFLNYDIMLGVNQGEGLKFVEGVVDPEDGVSGTDFDYSVSNFVDNLYGYPEGKDTLRETIKFMYTDWADRDNPETRRKTLVALFTDHQWVEPSVVTADLHARYGSPTYFYAFYHHCQSLMKPAWSDAAHGDEVPYVFGVPMVGPTDLFPCNFSKNDVMLSAVVMTYWTNFAKTGDPNKPVPQDTKFIHTKANRFEEVAWSKYNPRDQLYLHIGLKPRVRDHYRATKVAFWKHLVPHLYNLHDMFHYTSTTTKVPPPDTTHSSHITRRPNGKTWSTKRPAISPAYSNENAQGSWNGDQDAGPLLVENPRDYSTELSVTIAVGASLLFLNVLAFAALYYRKDKRRQEPLRQPSPQRGAGAPELGAAPEEELAALQLGPTHHECEAGPPHDTLRLTALPDYTLTLRRSPDDIPLMTPNTITMIPNSLVGLQTLHPYNTFAAGFNSTGLPHSHSTTRV
notes: expressed on cells; also called NLGN3 expressed on cells

Source: patent US20220119490A1 (Genentech, published 2022)
